In paper PMC2656442:
Read-outs that look alike come from different tables or passages of the source.

Columns and labels:
[1] = target: human RhoA (residues 1-193) (human) (UniProt P61586)
[2] = target: human Cdc42 (residues 1-191) (human) (UniProt P60953)
[3] = target: human RhoA (residues 1-193) (human) (UniProt P61586); experiment: ITC
[4] = target: human Cdc42 (residues 1-191) (human) (UniProt P60953); experiment: ITC
[5] = target: human RhoA (residues 1-193) (human) (UniProt P61586); remark: listed apart in the source
[6] = target: human Cdc42 (residues 1-191) (human) (UniProt P60953); remark: listed apart in the source
[7] = target: human RhoA (residues 1-193) (human) (UniProt P61586); experiment: ITC; remark: listed apart in the source
[8] = target: human Cdc42 (residues 1-191) (human) (UniProt P60953); experiment: ITC; remark: listed apart in the source
[9] = target: human Rac1 (residues 1-192) (human) (UniProt P63000); experiment: ITC

UniProt P60953, sequence (P60953 whole entry, the tested form may be a part): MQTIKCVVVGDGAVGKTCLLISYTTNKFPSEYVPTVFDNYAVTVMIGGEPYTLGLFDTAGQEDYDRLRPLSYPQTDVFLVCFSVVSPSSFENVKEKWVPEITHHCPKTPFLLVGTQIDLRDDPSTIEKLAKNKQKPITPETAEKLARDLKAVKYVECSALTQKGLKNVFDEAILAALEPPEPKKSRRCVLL
UniProt P61586, sequence (P61586 whole entry, the tested form may be a part): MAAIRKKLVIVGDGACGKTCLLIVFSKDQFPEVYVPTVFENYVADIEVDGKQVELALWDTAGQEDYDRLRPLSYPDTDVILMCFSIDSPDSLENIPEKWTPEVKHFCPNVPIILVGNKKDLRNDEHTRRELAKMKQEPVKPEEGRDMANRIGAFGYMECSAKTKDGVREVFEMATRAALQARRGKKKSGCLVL

Substance: GAP^Graf V338A (domain or fragment)
- KM of GAP-stimulated GTP hydrolysis (MESG/PNP assay), GTP·Mg2+-loaded RhoA [1]: 31.3 µM
- kcat/KM of GAP-stimulated GTP hydrolysis (MESG/PNP assay), GTP·Mg2+-loaded RhoA [1]: 26700 M⁻¹ s⁻¹
- KM of GAP-stimulated GTP hydrolysis (MESG/PNP assay), GTP·Mg2+-loaded Cdc42 [2]: 5.9 µM
- kcat/KM of GAP-stimulated GTP hydrolysis (MESG/PNP assay), GTP·Mg2+-loaded Cdc42 [2]: 243000 M⁻¹ s⁻¹
- Ka [3]: 93000 M⁻¹
- dH [3]: 14.5 kcal/mol
- Ka [4]: 203000 M⁻¹
- dH [4]: 16.9 kcal/mol

Substance: GAP^Graf R266A (domain or fragment)
- KM of GAP-stimulated GTP hydrolysis (MESG/PNP assay), GTP·Mg2+-loaded RhoA [1]: 25 µM
- kcat/KM of GAP-stimulated GTP hydrolysis (MESG/PNP assay), GTP·Mg2+-loaded RhoA [1]: 48300 M⁻¹ s⁻¹
- KM of GAP-stimulated GTP hydrolysis (MESG/PNP assay), GTP·Mg2+-loaded Cdc42 [2]: 11 µM
- kcat/KM of GAP-stimulated GTP hydrolysis (MESG/PNP assay), GTP·Mg2+-loaded Cdc42 [2]: 278000 M⁻¹ s⁻¹
- Ka [3]: 93000 M⁻¹
- dH [3]: 10.3 kcal/mol
- Ka [4]: 773000 M⁻¹
- dH [4]: 13.8 kcal/mol

Substance: GAP^Graf V224K (domain or fragment)
- KM of GAP-stimulated GTP hydrolysis (MESG/PNP assay), GTP·Mg2+-loaded RhoA [1]: 10.3 µM
- KM of GAP-stimulated GTP hydrolysis (MESG/PNP assay), GTP·Mg2+-loaded Cdc42 [2]: 10.2 µM
- kcat/KM of GAP-stimulated GTP hydrolysis (MESG/PNP assay), GTP·Mg2+-loaded Cdc42 [2]: 457000 M⁻¹ s⁻¹
- Ka [3]: 338000 M⁻¹
- dH [3]: 16.8 kcal/mol
- Ka [4]: 92000 M⁻¹
- dH [4]: 10.5 kcal/mol

Substance: GAP^Graf I358E (domain or fragment)
- KM of GAP-stimulated GTP hydrolysis (MESG/PNP assay), GTP·Mg2+-loaded Cdc42 [2]: 12.4 µM
- Ka [3]: 33000 M⁻¹
- dH [3]: 3.92 kcal/mol
- Ka [4]: 97000 M⁻¹
- dH [4]: 4.64 kcal/mol

Substance: GAP^Graf N225A (domain or fragment)
- KM of GAP-stimulated GTP hydrolysis (MESG/PNP assay), GTP·Mg2+-loaded RhoA [1]: 24.4 µM
- kcat/KM of GAP-stimulated GTP hydrolysis (MESG/PNP assay), GTP·Mg2+-loaded RhoA [1]: 205000 M⁻¹ s⁻¹
- KM of GAP-stimulated GTP hydrolysis (MESG/PNP assay), GTP·Mg2+-loaded Cdc42 [2]: 8 µM
- kcat/KM of GAP-stimulated GTP hydrolysis (MESG/PNP assay), GTP·Mg2+-loaded Cdc42 [2]: 205000 M⁻¹ s⁻¹
- Ka [3]: 303000 M⁻¹
- dH [3]: 10.7 kcal/mol
- Ka [4]: 1.56e+06 M⁻¹
- dH [4]: 9.85 kcal/mol

Substance: GAP domain of Graf (GTPase Regulator Associated with Focal Adhesion Kinase), wild type (domain or fragment)
- KM of GAP-stimulated GTP hydrolysis (MESG/PNP assay), GTP·Mg2+-loaded RhoA [5]: 6.8 µM
- kcat of GAP-stimulated GTP hydrolysis (MESG/PNP assay), GTP·Mg2+-loaded RhoA [5]: 1.46 s⁻¹
- kcat/KM of GAP-stimulated GTP hydrolysis (MESG/PNP assay), GTP·Mg2+-loaded RhoA [5]: 217000 M⁻¹ s⁻¹
- kcat of GAP-stimulated GTP hydrolysis (MESG/PNP assay), GTP·Mg2+-loaded Cdc42 [6]: 3.65 s⁻¹
- Ka [7]: 33800 M⁻¹
- dH [7]: 1.6 kcal/mol
- Ka [8]: 26100 M⁻¹
- dH [8]: 5.47 kcal/mol
- fold lower KA than for Cdc42 (m1 with m18) [9]: 100 fold
- fold lower KA than for RhoA (m1 with m19) [9]: > 20 fold
- Ka [3]: 554000 M⁻¹
- dH [3]: 13 kcal/mol
- stoichiometry N [3]: 1
- Ka [4]: 2.42e+06 M⁻¹
- dH [4]: 15 kcal/mol
- stoichiometry N [4]: 1

Substance: GAP^Graf E253K (domain or fragment)
- KM of GAP-stimulated GTP hydrolysis (MESG/PNP assay), GTP·Mg2+-loaded RhoA [1]: 8.8 µM
- kcat/KM of GAP-stimulated GTP hydrolysis (MESG/PNP assay), GTP·Mg2+-loaded RhoA [1]: 413000 M⁻¹ s⁻¹
- KM of GAP-stimulated GTP hydrolysis (MESG/PNP assay), GTP·Mg2+-loaded Cdc42 [2]: 10.2 µM
- kcat/KM of GAP-stimulated GTP hydrolysis (MESG/PNP assay), GTP·Mg2+-loaded Cdc42 [2]: 457000 M⁻¹ s⁻¹
- Ka [3]: 643000 M⁻¹
- dH [3]: 12 kcal/mol
- Ka [4]: 445000 M⁻¹
- dH [4]: 10.5 kcal/mol

Substance: GAP^Graf E253A (domain or fragment)
- KM of GAP-stimulated GTP hydrolysis (MESG/PNP assay), GTP·Mg2+-loaded RhoA [1]: 11.3 µM
- kcat/KM of GAP-stimulated GTP hydrolysis (MESG/PNP assay), GTP·Mg2+-loaded RhoA [1]: 330000 M⁻¹ s⁻¹
- KM of GAP-stimulated GTP hydrolysis (MESG/PNP assay), GTP·Mg2+-loaded Cdc42 [2]: 19.9 µM
- kcat/KM of GAP-stimulated GTP hydrolysis (MESG/PNP assay), GTP·Mg2+-loaded Cdc42 [2]: 532000 M⁻¹ s⁻¹
- Ka [3]: 456000 M⁻¹
- dH [3]: 10.1 kcal/mol
- Ka [4]: 298000 M⁻¹
- dH [4]: 7.48 kcal/mol

Substance: GAP^Graf I358A (domain or fragment)
- KM of GAP-stimulated GTP hydrolysis (MESG/PNP assay), GTP·Mg2+-loaded RhoA [1]: 18.2 µM
- kcat/KM of GAP-stimulated GTP hydrolysis (MESG/PNP assay), GTP·Mg2+-loaded RhoA [1]: 41700 M⁻¹ s⁻¹
- KM of GAP-stimulated GTP hydrolysis (MESG/PNP assay), GTP·Mg2+-loaded Cdc42 [2]: 15 µM
- kcat/KM of GAP-stimulated GTP hydrolysis (MESG/PNP assay), GTP·Mg2+-loaded Cdc42 [2]: 333000 M⁻¹ s⁻¹
- Ka [3]: 255000 M⁻¹
- dH [3]: 14.4 kcal/mol
- Ka [4]: 946000 M⁻¹
- dH [4]: 14 kcal/mol

Substance: GAP^Graf V338L (domain or fragment)
- KM of GAP-stimulated GTP hydrolysis (MESG/PNP assay), GTP·Mg2+-loaded RhoA [1]: 8.7 µM
- kcat/KM of GAP-stimulated GTP hydrolysis (MESG/PNP assay), GTP·Mg2+-loaded RhoA [1]: 33300 M⁻¹ s⁻¹
- KM of GAP-stimulated GTP hydrolysis (MESG/PNP assay), GTP·Mg2+-loaded Cdc42 [2]: 2.4 µM
- kcat/KM of GAP-stimulated GTP hydrolysis (MESG/PNP assay), GTP·Mg2+-loaded Cdc42 [2]: 522000 M⁻¹ s⁻¹
- Ka [3]: 220000 M⁻¹
- dH [3]: 9.8 kcal/mol
- Ka [4]: 1.18e+06 M⁻¹
- dH [4]: 15.9 kcal/mol
